T1: human IL-12 (human, UniProt P29460 23-328; P29459 23-219)
T1 construct: also called Interleukin-12
T1 sequence 1: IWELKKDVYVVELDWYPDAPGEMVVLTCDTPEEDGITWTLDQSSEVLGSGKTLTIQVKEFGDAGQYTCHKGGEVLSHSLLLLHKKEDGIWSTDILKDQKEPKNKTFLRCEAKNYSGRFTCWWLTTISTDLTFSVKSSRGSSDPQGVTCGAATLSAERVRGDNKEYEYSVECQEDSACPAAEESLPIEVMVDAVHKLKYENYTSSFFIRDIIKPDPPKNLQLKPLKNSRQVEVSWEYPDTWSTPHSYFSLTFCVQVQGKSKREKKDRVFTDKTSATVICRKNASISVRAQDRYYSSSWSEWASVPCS
T1 sequence 2: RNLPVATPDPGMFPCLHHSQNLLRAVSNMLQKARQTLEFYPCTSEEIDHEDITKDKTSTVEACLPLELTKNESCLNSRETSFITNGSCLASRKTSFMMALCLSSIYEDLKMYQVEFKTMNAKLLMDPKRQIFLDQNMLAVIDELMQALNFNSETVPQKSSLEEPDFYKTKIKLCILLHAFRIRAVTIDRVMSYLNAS


Molecular target: T1, human IL-12
Experiment: SPR (Biacore T200), 37 C, pH 7.4; captured antibody, IL-12 analyte
In short: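 Antibodies captured (~50 RU) on anti-human Fc surface, CM4 chip; 5 nM human IL-12 injected as analyte, then dissociation. Run at 37 °C in 20 mM ACES pH 7.4, 150 mM NaCl, 0.05% Tween 20; 3M MgCl₂ regeneration between cycles.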

Kd [nM] | Binder
0.331 | Anti-IL-12 antibody Ab1 variant W103A VH/- (antibody, name in Kabat numbering, Ab1 with VH/VL interface substitutions; Kabat numbering) heavy: not shown light: DIVMTQSPLSLPVTPGEPASISCRASQSISINLHWYQQKPGQAPRLLIYFASQSISGVPSRFSGSGSGTDFTLTISSLQPEDFATYYCQQSNSFPLTFGQGTKVEIKRTVAAPSVFIFPPSDEQLKSGTASVVCLLNNFYPREAKVQWKVDNALQSGNSQESVTEQDSKDSTYSLSSTLTLSKADYEKHKVYACEVTHQGLSSPVTKSFNRGEC
1.6 | Anti-IL-12 antibody Ab1 variant W103I VH/A43Q, Y49A VL (antibody, name in Kabat numbering, Ab1 with VH/VL interface substitutions; Kabat numbering) heavy: not shown light: DIVMTQSPLSLPVTPGEPASISCRASQSISINLHWYQQKPGQQPRLLIAFASQSISGVPSRFSGSGSGTDFTLTISSLQPEDFATYYCQQSNSFPLTFGQGTKVEIKRTVAAPSVFIFPPSDEQLKSGTASVVCLLNNFYPREAKVQWKVDNALQSGNSQESVTEQDSKDSTYSLSSTLTLSKADYEKHKVYACEVTHQGLSSPVTKSFNRGEC
1.07 | Anti-IL-12 antibody Ab1 variant W103M VH/P44A, Y49A VL (antibody, name in Kabat numbering, Ab1 with VH/VL interface substitutions; Kabat numbering) heavy: not shown light: DIVMTQSPLSLPVTPGEPASISCRASQSISINLHWYQQKPGQAARLLIAFASQSISGVPSRFSGSGSGTDFTLTISSLQPEDFATYYCQQSNSFPLTFGQGTKVEIKRTVAAPSVFIFPPSDEQLKSGTASVVCLLNNFYPREAKVQWKVDNALQSGNSQESVTEQDSKDSTYSLSSTLTLSKADYEKHKVYACEVTHQGLSSPVTKSFNRGEC
0.631 | Anti-IL-12 antibody Ab1 variant W103M VH/- (antibody, name in Kabat numbering, Ab1 with VH/VL interface substitutions; Kabat numbering) heavy: not shown light: DIVMTQSPLSLPVTPGEPASISCRASQSISINLHWYQQKPGQAPRLLIYFASQSISGVPSRFSGSGSGTDFTLTISSLQPEDFATYYCQQSNSFPLTFGQGTKVEIKRTVAAPSVFIFPPSDEQLKSGTASVVCLLNNFYPREAKVQWKVDNALQSGNSQESVTEQDSKDSTYSLSSTLTLSKADYEKHKVYACEVTHQGLSSPVTKSFNRGEC
3.86 | Anti-IL-12 antibody Ab1 variant W103L VH/L46Q, Y49A VL (antibody, name in Kabat numbering, Ab1 with VH/VL interface substitutions; Kabat numbering) heavy: not shown light: DIVMTQSPLSLPVTPGEPASISCRASQSISINLHWYQQKPGQAPRQLIAFASQSISGVPSRFSGSGSGTDFTLTISSLQPEDFATYYCQQSNSFPLTFGQGTKVEIKRTVAAPSVFIFPPSDEQLKSGTASVVCLLNNFYPREAKVQWKVDNALQSGNSQESVTEQDSKDSTYSLSSTLTLSKADYEKHKVYACEVTHQGLSSPVTKSFNRGEC
1.12 | Anti-IL-12 antibody Ab1 variant W103L VH/A43Q, Y49A VL (antibody, name in Kabat numbering, Ab1 with VH/VL interface substitutions; Kabat numbering) heavy: not shown light: DIVMTQSPLSLPVTPGEPASISCRASQSISINLHWYQQKPGQQPRLLIAFASQSISGVPSRFSGSGSGTDFTLTISSLQPEDFATYYCQQSNSFPLTFGQGTKVEIKRTVAAPSVFIFPPSDEQLKSGTASVVCLLNNFYPREAKVQWKVDNALQSGNSQESVTEQDSKDSTYSLSSTLTLSKADYEKHKVYACEVTHQGLSSPVTKSFNRGEC
3.97 | Anti-IL-12 antibody Ab1 variant Y91A VH/L46Q, Y49A VL (antibody, name in Kabat numbering, V domains shown, Ab1 with VH/VL interface substitutions; Kabat numbering) VH: QVQLVQSGAEVKKPGSSVKVSCKASGGTFSDYYLHWVRQAPGQGLEWMGWIDPENGDTEYAPKFQGRVTITADESTSTAYMELSSLRSEDTAVYACARNKELRYFDVWGQGTLVTVSS VL: DIVMTQSPLSLPVTPGEPASISCRASQSISINLHWYQQKPGQAPRQLIAFASQSISGVPSRFSGSGSGTDFTLTISSLQPEDFATYYCQQSNSFPLTFGQGTKVEIKR
1.34 | Anti-IL-12 antibody Ab1 variant W103L VH/P44A, Y49A VL (antibody, name in Kabat numbering, Ab1 with VH/VL interface substitutions; Kabat numbering) heavy: not shown light: DIVMTQSPLSLPVTPGEPASISCRASQSISINLHWYQQKPGQAARLLIAFASQSISGVPSRFSGSGSGTDFTLTISSLQPEDFATYYCQQSNSFPLTFGQGTKVEIKRTVAAPSVFIFPPSDEQLKSGTASVVCLLNNFYPREAKVQWKVDNALQSGNSQESVTEQDSKDSTYSLSSTLTLSKADYEKHKVYACEVTHQGLSSPVTKSFNRGEC
2.32 | Anti-IL-12 antibody Ab1 variant Y91A VH/P44A, Y49A VL (antibody, name in Kabat numbering, V domains shown, Ab1 with VH/VL interface substitutions; Kabat numbering) VH: QVQLVQSGAEVKKPGSSVKVSCKASGGTFSDYYLHWVRQAPGQGLEWMGWIDPENGDTEYAPKFQGRVTITADESTSTAYMELSSLRSEDTAVYACARNKELRYFDVWGQGTLVTVSS VL: DIVMTQSPLSLPVTPGEPASISCRASQSISINLHWYQQKPGQAARLLIAFASQSISGVPSRFSGSGSGTDFTLTISSLQPEDFATYYCQQSNSFPLTFGQGTKVEIKR
4.86 | Anti-IL-12 antibody Ab1 variant W103I VH/L46Q, Y49A VL (antibody, name in Kabat numbering, Ab1 with VH/VL interface substitutions; Kabat numbering) heavy: not shown light: DIVMTQSPLSLPVTPGEPASISCRASQSISINLHWYQQKPGQAPRQLIAFASQSISGVPSRFSGSGSGTDFTLTISSLQPEDFATYYCQQSNSFPLTFGQGTKVEIKRTVAAPSVFIFPPSDEQLKSGTASVVCLLNNFYPREAKVQWKVDNALQSGNSQESVTEQDSKDSTYSLSSTLTLSKADYEKHKVYACEVTHQGLSSPVTKSFNRGEC
0.948 | Anti-IL-12 antibody Ab1 variant Y91A VH/- (antibody, name in Kabat numbering, V domains shown, Ab1 with VH/VL interface substitutions; Kabat numbering) VH: QVQLVQSGAEVKKPGSSVKVSCKASGGTFSDYYLHWVRQAPGQGLEWMGWIDPENGDTEYAPKFQGRVTITADESTSTAYMELSSLRSEDTAVYACARNKELRYFDVWGQGTLVTVSS VL: DIVMTQSPLSLPVTPGEPASISCRASQSISINLHWYQQKPGQAPRLLIYFASQSISGVPSRFSGSGSGTDFTLTISSLQPEDFATYYCQQSNSFPLTFGQGTKVEIKR
1.91 | Anti-IL-12 antibody Ab1 variant Y91A VH/A43Q, Y49A VL (antibody, name in Kabat numbering, V domains shown, Ab1 with VH/VL interface substitutions; Kabat numbering) VH: QVQLVQSGAEVKKPGSSVKVSCKASGGTFSDYYLHWVRQAPGQGLEWMGWIDPENGDTEYAPKFQGRVTITADESTSTAYMELSSLRSEDTAVYACARNKELRYFDVWGQGTLVTVSS VL: DIVMTQSPLSLPVTPGEPASISCRASQSISINLHWYQQKPGQQPRLLIAFASQSISGVPSRFSGSGSGTDFTLTISSLQPEDFATYYCQQSNSFPLTFGQGTKVEIKR
2.82 | Anti-IL-12 antibody Ab1 variant Y91A VH/Y49A, Y87L VL (antibody, name in Kabat numbering, V domains shown, Ab1 with VH/VL interface substitutions; Kabat numbering) VH: QVQLVQSGAEVKKPGSSVKVSCKASGGTFSDYYLHWVRQAPGQGLEWMGWIDPENGDTEYAPKFQGRVTITADESTSTAYMELSSLRSEDTAVYACARNKELRYFDVWGQGTLVTVSS VL: DIVMTQSPLSLPVTPGEPASISCRASQSISINLHWYQQKPGQAPRLLIAFASQSISGVPSRFSGSGSGTDFTLTISSLQPEDFATYLCQQSNSFPLTFGQGTKVEIKR
1.21 | Anti-IL-12 antibody Ab1 variant Y91L VH/- (antibody, name in Kabat numbering, V domains shown, Ab1 with VH/VL interface substitutions; Kabat numbering) VH: QVQLVQSGAEVKKPGSSVKVSCKASGGTFSDYYLHWVRQAPGQGLEWMGWIDPENGDTEYAPKFQGRVTITADESTSTAYMELSSLRSEDTAVYLCARNKELRYFDVWGQGTLVTVSS VL: DIVMTQSPLSLPVTPGEPASISCRASQSISINLHWYQQKPGQAPRLLIYFASQSISGVPSRFSGSGSGTDFTLTISSLQPEDFATYYCQQSNSFPLTFGQGTKVEIKR
1.79 | Anti-IL-12 antibody Ab1 variant W103M VH/Y49A, Y87L VL (antibody, name in Kabat numbering, Ab1 with VH/VL interface substitutions; Kabat numbering) heavy: not shown light: DIVMTQSPLSLPVTPGEPASISCRASQSISINLHWYQQKPGQAPRLLIAFASQSISGVPSRFSGSGSGTDFTLTISSLQPEDFATYLCQQSNSFPLTFGQGTKVEIKRTVAAPSVFIFPPSDEQLKSGTASVVCLLNNFYPREAKVQWKVDNALQSGNSQESVTEQDSKDSTYSLSSTLTLSKADYEKHKVYACEVTHQGLSSPVTKSFNRGEC
1.57 | Anti-IL-12 antibody Ab1 variant W103I VH/P44A, Y49A VL (antibody, name in Kabat numbering, Ab1 with VH/VL interface substitutions; Kabat numbering) heavy: not shown light: DIVMTQSPLSLPVTPGEPASISCRASQSISINLHWYQQKPGQAARLLIAFASQSISGVPSRFSGSGSGTDFTLTISSLQPEDFATYYCQQSNSFPLTFGQGTKVEIKRTVAAPSVFIFPPSDEQLKSGTASVVCLLNNFYPREAKVQWKVDNALQSGNSQESVTEQDSKDSTYSLSSTLTLSKADYEKHKVYACEVTHQGLSSPVTKSFNRGEC
3.52 | Anti-IL-12 antibody Ab1 variant W103M VH/L46Q, Y49A VL (antibody, name in Kabat numbering, Ab1 with VH/VL interface substitutions; Kabat numbering) heavy: not shown light: DIVMTQSPLSLPVTPGEPASISCRASQSISINLHWYQQKPGQAPRQLIAFASQSISGVPSRFSGSGSGTDFTLTISSLQPEDFATYYCQQSNSFPLTFGQGTKVEIKRTVAAPSVFIFPPSDEQLKSGTASVVCLLNNFYPREAKVQWKVDNALQSGNSQESVTEQDSKDSTYSLSSTLTLSKADYEKHKVYACEVTHQGLSSPVTKSFNRGEC
1.51 | Anti-IL-12 antibody Ab1 variant W103L VH/Y49A, Y87L VL (antibody, name in Kabat numbering, Ab1 with VH/VL interface substitutions; Kabat numbering) heavy: not shown light: DIVMTQSPLSLPVTPGEPASISCRASQSISINLHWYQQKPGQAPRLLIAFASQSISGVPSRFSGSGSGTDFTLTISSLQPEDFATYLCQQSNSFPLTFGQGTKVEIKRTVAAPSVFIFPPSDEQLKSGTASVVCLLNNFYPREAKVQWKVDNALQSGNSQESVTEQDSKDSTYSLSSTLTLSKADYEKHKVYACEVTHQGLSSPVTKSFNRGEC
0.549 | Anti-IL-12 antibody Ab1 variant W103L VH/- (antibody, name in Kabat numbering, Ab1 with VH/VL interface substitutions; Kabat numbering) heavy: not shown light: DIVMTQSPLSLPVTPGEPASISCRASQSISINLHWYQQKPGQAPRLLIYFASQSISGVPSRFSGSGSGTDFTLTISSLQPEDFATYYCQQSNSFPLTFGQGTKVEIKRTVAAPSVFIFPPSDEQLKSGTASVVCLLNNFYPREAKVQWKVDNALQSGNSQESVTEQDSKDSTYSLSSTLTLSKADYEKHKVYACEVTHQGLSSPVTKSFNRGEC
1.45 | Anti-IL-12 antibody Ab1 variant W103M VH/A43Q, Y49A VL (antibody, name in Kabat numbering, Ab1 with VH/VL interface substitutions; Kabat numbering) heavy: not shown light: DIVMTQSPLSLPVTPGEPASISCRASQSISINLHWYQQKPGQQPRLLIAFASQSISGVPSRFSGSGSGTDFTLTISSLQPEDFATYYCQQSNSFPLTFGQGTKVEIKRTVAAPSVFIFPPSDEQLKSGTASVVCLLNNFYPREAKVQWKVDNALQSGNSQESVTEQDSKDSTYSLSSTLTLSKADYEKHKVYACEVTHQGLSSPVTKSFNRGEC
